Values quoted from earlier work in article PMC2805756.

Target: His107 (UniProt position 107, SSGMIHLLVQV)
Assay: kinetics
Settings: free wild-type enzyme (thiolate-imidazolium ion pair)

## Arylamine N-acetyltransferase 2 (hamster NAT2), wild type (Mesocricetus auratus (the article says only 'hamster'))
  pKa: >9.5
